From the FLAb antibody collection (doi:10.7554/elife.23156)

B1: scFv; the commonest letter at each place (parent)
chain 1: EVKLDETGGGLVQPGRPMKLSCVASGFTFSDYWMNWVRQSPEKGLEWVAQIRNKPYNYETYYSDSVKGRFTISRDDSKSSVYLQMNNLRVEDMGIYYCTGSYYGMDYWGQGTSVTVS
chain 2: DVVMTQTPLSLPVSLGDQASISCRSSQSLVHSNGNTYLRWYLQKPGQSPKVLIYKVSNRFSGVPDRFSGSGSGTDFTLKISRVEAEDLGVYFCSQSTHVPWTFGGGTKLEIK

Experiments:
fluorescein = variants of: B1; test: Kd (Tite-Seq); settings: with fluorescein; format: scFv 4-4-20, heavy + light
[1] = variants of: B1; test: yeast surface expression (ratio to wild type); higher = more expressed; settings: format: scFv 4-4-20, heavy + light

| Variant | Kd (fluorescein) [µM] | yeast surface expression [1] |
| --- | --- | --- |
| chain 1 T28V Y32S V37F | ≥ 10 | 0.818 |
| chain 1 D31F W33I | ≥ 10 | 0.487 |
| chain 1 S101R Y107C | ≥ 10 | 0.286 |
| chain 1 S30A D31A V37C | 0.00158 | 0.739 |
| chain 1 Y102E G109N | ≥ 10 | 0.382 |
| chain 1 F29N M34H | 1.63 | 0.665 |
| chain 1 W36D V37H | ≥ 10 | 0.21 |
| chain 1 Y103V Y107M | ≥ 10 | 0.53 |
| chain 1 G104Y G109R | 0.021 | 1.08 |
| chain 1 Y103N G104T | ≥ 10 | 0.851 |
| chain 1 S30R N35V | ≥ 10 | 0.567 |
| chain 1 S30R N35R | ≥ 10 | 0.535 |
| chain 1 Y102A G109K | ≥ 10 | 0.279 |
| chain 1 G104E G109C | ≥ 10 | 0.21 |
| chain 1 W33S W36L | ≥ 10 | 0.535 |
| chain 1 G100D | ≥ 10 | 0.453 |
| chain 1 G100T | 0.921 | 0.994 |
| chain 1 T28K S30K M34Y | 0.00575 | 0.855 |
| chain 1 Y32D | ≥ 10 | 1.04 |
| chain 1 Y32R | 0.064 | 0.954 |
| chain 1 W33F N35Q | ≥ 10 | 0.614 |
| chain 1 S30A M34L | 0.00115 | 1.1 |
| chain 1 F29A M34S | ≥ 10 | 0.612 |

| Variant | Kd (fluorescein) [µM] | yeast surface expression [1] |
| --- | --- | --- |
| chain 1 T28S M34N | ≥ 10 | 0.645 |
| chain 1 G104L W108G | ≥ 10 | 0.178 |
| chain 1 D106K G109L | ≥ 10 | 0.324 |
| chain 1 S30N N35T | ≥ 10 | 0.803 |
| chain 1 S30N N35E | ≥ 10 | 0.697 |
| chain 1 M105L | 0.00519 | 0.924 |
| chain 1 Y102P W108Y | ≥ 10 | 0.464 |
| chain 1 F29S S30H | 0.832 | 0.945 |
| chain 1 T28P Y32R | 5.66 | 1.09 |
| chain 1 F29L W33D W36S | ≥ 10 | 0.585 |
| chain 1 W108Q G109Q | ≥ 10 | 0.278 |
| chain 1 D31S V37P | ≥ 10 | 0.675 |
| chain 1 W33N M34F | ≥ 10 | 0.815 |
| chain 1 S101C | ≥ 10 | 0.832 |
| chain 1 D31P Y32W | ≥ 10 | 0.762 |
| chain 1 Y102K Y107I | 0.0302 | 1 |
| chain 1 G100I G104W | ≥ 10 | 0.449 |
| chain 1 T28G V37P | 0.00519 | 0.581 |
| chain 1 G109Q | ≥ 10 | 0.391 |
| chain 1 G104M Y107H | ≥ 10 | 0.555 |
| chain 1 Y102M M105K D106W | ≥ 10 | 0.527 |
| chain 1 Y102R M105N | 0.0318 | 0.764 |
| chain 1 Y32C W36R | ≥ 10 | 0.506 |

| Variant | Kd (fluorescein) [µM] | yeast surface expression [1] |
| --- | --- | --- |
| chain 1 Y102N M105C | ≥ 10 | 1.22 |
| chain 1 D31Y M34K | 0.676 | 0.834 |
| chain 1 G100I W108M | 0.00468 | 0.946 |
| chain 1 F29A V37S | ≥ 10 | 0.545 |
| chain 1 F29A W36S | ≥ 10 | 0.313 |
| chain 1 W33C M34Q | ≥ 10 | 0.755 |
| chain 1 G104L Y107E | ≥ 10 | 0.499 |
| chain 1 Y102K Y103D | 0.0132 | 1.24 |
| chain 1 T28Q D31A | 0.00575 | 0.845 |
| chain 1 S30N Y32S | 0.0146 | 1.14 |
| chain 1 Y102H D106Q | ≥ 10 | 0.937 |
| chain 1 G104A D106T | ≥ 10 | 0.78 |
| chain 1 Y32P M34N | ≥ 10 | 0.503 |
| chain 1 W108D G109I | ≥ 10 | 0.209 |
| chain 1 T28Q W33V | ≥ 10 | 1.34 |
| chain 1 W33Q W36K | ≥ 10 | 0.466 |
| chain 1 M105G G109S | ≥ 10 | 0.794 |
| chain 1 G100F D106K | ≥ 10 | 0.653 |
| chain 1 Y32G M34E | ≥ 10 | 0.194 |
| chain 1 T28Y F29T W33T | ≥ 10 | 0.745 |
| chain 1 G100I Y107P | ≥ 10 | 0.276 |
| chain 1 S30H W36M | 2.34 | 0.564 |
| chain 1 F29Y V37L | ≥ 10 | 0.669 |

| Variant | Kd (fluorescein) [µM] | yeast surface expression [1] |
| --- | --- | --- |
| chain 1 Y32H M34H | ≥ 10 | 0.674 |
| chain 1 Y32Q W33N | ≥ 10 | 0.726 |
| chain 1 F29C W33Q | ≥ 10 | 0.687 |
| chain 1 Y103L | 0.00708 | 1.08 |
| chain 1 F29Q S30Q | 0.0146 | 0.966 |
| chain 1 Y103V G104W | ≥ 10 | 0.419 |
| chain 1 D31S Y32G | 0.24 | 0.78 |
| chain 1 Y32W W36Q | ≥ 10 | 0.936 |
| chain 1 M34Y W36K | ≥ 10 | 0.113 |
| chain 1 N35G | 0.0102 | 0.989 |
| chain 1 Y102A Y107P | ≥ 10 | 0.707 |
| chain 1 G100T D106A | ≥ 10 | 0.704 |
| chain 1 W108M | ≤ 0.000316 | 1 |
| chain 1 W108A | 0.00209 | 0.588 |
| chain 1 W108V | ≤ 0.000316 | 0.831 |
| chain 1 Y102W G104H G109I | ≥ 10 | 0.0981 |
| chain 1 S101W G104H | ≥ 10 | 0.376 |
| chain 1 Y102M D106A W108A | ≥ 10 | 0.612 |
| chain 1 G100W S101L | ≥ 10 | 0.293 |
| chain 1 S30P N35G | 0.00468 | 1.19 |
| chain 1 Y102L W108Q | ≥ 10 | 0.328 |
| chain 1 S101W Y107T | ≥ 10 | 0.42 |
| chain 1 S101F M105L | ≥ 10 | 0.483 |

| Variant | Kd (fluorescein) [µM] | yeast surface expression [1] |
| --- | --- | --- |
| chain 1 S101Q M105Y | ≥ 10 | 0.795 |
| chain 1 Y103I G104M | ≥ 10 | 0.368 |
| chain 1 F29Y M34E | ≥ 10 | 0.542 |
| chain 1 G104S W108R | ≥ 10 | 0.26 |
| chain 1 Y102Q G104H | ≥ 10 | 0.672 |
| chain 1 T28E S30W Y32D | ≥ 10 | 0.574 |
| chain 1 Y32T V37E | ≥ 10 | 0.222 |
| chain 1 Y103L G109S | 0.167 | 0.855 |
| chain 1 S30C W36E | ≥ 10 | 0.214 |
| chain 1 Y103D W108R | ≥ 10 | 0.524 |
| chain 1 G104S Y107S | ≥ 10 | 0.437 |
| chain 1 G104S Y107G | ≥ 10 | 0.303 |
| chain 1 W36L | ≥ 10 | 0.686 |
| chain 1 W36T | ≥ 10 | 0.497 |
| chain 1 F29R V37N | ≥ 10 | 0.445 |
| chain 1 T28K M34V | 0.00122 | 0.867 |
| chain 1 D31V W33D | ≥ 10 | 0.821 |
| chain 1 Y32L W36Y | 3.74 | 0.682 |
| chain 1 F29V Y32S | 8.13 | 0.999 |
| chain 1 N35E W36E | ≥ 10 | 1.23 |
| chain 1 G100T M105T | ≥ 10 | 0.909 |
| chain 1 Y107M G109Q | ≥ 10 | 0.353 |
| chain 1 S30Q N35K | ≥ 10 | 0.304 |
